Reference: the supplement of paper PMC10065799, “High-throughput profiling of sequence recognition by tyrosine kinases and SH2 domains using bacterial peptide display” (eLife, 2023)

target: FGFR3 (UniProt P22607); assay: phosphorylation enrichment, bacterial display (enrichment ratio); higher = better substrate or ligand; peptides without Tyr show the background
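Note: 11-residue human phosphosite peptides and single-mutation variants displayed on the E. coli surface, counted by deep sequencing, each peptide's frequency after selection divided by its frequency in the unselected input library; frequency after pTyr selection over input frequency; kinase dosed for 20-30% of maximal phosphorylation in three min.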

FGFR3, sequence (P22607 whole entry, looked up): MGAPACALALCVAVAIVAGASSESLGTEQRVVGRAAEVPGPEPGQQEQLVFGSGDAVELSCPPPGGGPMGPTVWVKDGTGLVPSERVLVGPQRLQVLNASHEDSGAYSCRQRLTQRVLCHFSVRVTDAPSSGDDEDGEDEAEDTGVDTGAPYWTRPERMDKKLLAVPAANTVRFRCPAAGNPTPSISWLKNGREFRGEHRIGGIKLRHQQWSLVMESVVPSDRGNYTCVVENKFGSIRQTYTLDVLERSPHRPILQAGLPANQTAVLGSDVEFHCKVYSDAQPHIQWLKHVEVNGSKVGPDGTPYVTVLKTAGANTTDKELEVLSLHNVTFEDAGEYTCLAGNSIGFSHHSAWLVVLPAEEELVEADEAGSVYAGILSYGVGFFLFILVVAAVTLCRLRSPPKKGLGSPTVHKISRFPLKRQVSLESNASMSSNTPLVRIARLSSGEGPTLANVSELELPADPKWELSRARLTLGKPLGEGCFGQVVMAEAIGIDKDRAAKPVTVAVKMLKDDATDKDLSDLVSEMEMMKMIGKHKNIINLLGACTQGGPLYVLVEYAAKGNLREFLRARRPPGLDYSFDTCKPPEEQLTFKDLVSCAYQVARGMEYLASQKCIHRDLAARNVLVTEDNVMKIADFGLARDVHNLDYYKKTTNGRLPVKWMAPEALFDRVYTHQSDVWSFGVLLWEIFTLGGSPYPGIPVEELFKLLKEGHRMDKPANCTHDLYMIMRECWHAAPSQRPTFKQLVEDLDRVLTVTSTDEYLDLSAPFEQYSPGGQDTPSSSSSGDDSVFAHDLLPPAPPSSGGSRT

Sequence	phosphorylation enrichment
GRQGIYTKNER [GPR143_Y231_E233K]	0.371
GTHCHYKAPIV [FZD9_Y569_T573I]	0.636
KDQGTYEDFVE [MYL6_Y86_YF]	1.35
GPQGVYSNKLV [PTPN14_Y506]	0.51
IGVDSYSVCKR [RPS6KA3_Y433_G431D]	0.405
VSNFNYFFHRE [KCNA1_Y413_YF]	0.885
QHVPDYRQNGY [PCDHGA1_Y890_V894G]	0.578
VSVVDYVEPSP [TXNRD2_Y70_A66S]	0.629
FSIDHYLGKEM [G6PD_Y202_R198S_YF]	0.749
DQIDTYELSGA [DNM1_Y354_G359A]	0.809
NNHGNYIVRLG [ETFDH_Y172]	0.595
KPVEEYANCHL [TF_Y593]	0.65
HFGCVYFGTLL [MET_Y1093_H1094Y_YF]	1.51
QFRFIYMAVQH [PTPN11_Y515_YF]	1.22
LHQSTYQCYDV [SLC7A14_Y693_R695C]	1.2
EPYKVYRIVPE [IRF8_Y110]	0.612
PLEGEYFTLQI [TP53_Y327_D324E]	15.5
DVFRQYASLTG [GANAB_Y379]	0.428
GSRGKYSSGFR [ATM_Y332]	0.453
SWVVPYEPPEV [TP53_Y220_V216W]	0.861
EKSREYDRLYE [PIK3R1_Y463]	0.706
LCHELYNTIRD [PBRM1_Y54_V49L]	0.905
TSESSYYKSLN [NGEF_Y288_A286S]	0.651
SSLMKYQQNVS [EGFEM1P_Y160_P157L]	0.536
QKKPRYEIRWK [PDGFRB_Y562]	2.06
TTKAKYKTPTY [PLD2_Y573]	0.32
STEVIYQPRRK [STK11_Y36]	0.539
GREFIYVDPMQ [PDGFRA_Y574_H570R_YF]	4.31
AGAKTYKMSMA [CPS1_Y309]	0.426

tested on: Fer (mouse); assay: as above

Sequence	phosphorylation enrichment
GRQGIYTKNER [GPR143_Y231_E233K]	0.556
GTHCHYKAPIV [FZD9_Y569_T573I]	0.58
KDQGTYEDFVE [MYL6_Y86_YF]	0.911
GPQGVYSNKLV [PTPN14_Y506]	0.407
IGVDSYSVCKR [RPS6KA3_Y433_G431D]	0.366
VSNFNYFFHRE [KCNA1_Y413_YF]	0.472
QHVPDYRQNGY [PCDHGA1_Y890_V894G]	0.496
VSVVDYVEPSP [TXNRD2_Y70_A66S]	0.521
FSIDHYLGKEM [G6PD_Y202_R198S_YF]	0.511
DQIDTYELSGA [DNM1_Y354_G359A]	0.637
NNHGNYIVRLG [ETFDH_Y172]	0.438
KPVEEYANCHL [TF_Y593]	0.481
HFGCVYFGTLL [MET_Y1093_H1094Y_YF]	0.458
QFRFIYMAVQH [PTPN11_Y515_YF]	1.3
LHQSTYQCYDV [SLC7A14_Y693_R695C]	2.84
EPYKVYRIVPE [IRF8_Y110]	0.447
PLEGEYFTLQI [TP53_Y327_D324E]	3.01
DVFRQYASLTG [GANAB_Y379]	0.417
GSRGKYSSGFR [ATM_Y332]	0.793
SWVVPYEPPEV [TP53_Y220_V216W]	0.577
EKSREYDRLYE [PIK3R1_Y463]	0.711
LCHELYNTIRD [PBRM1_Y54_V49L]	0.869
TSESSYYKSLN [NGEF_Y288_A286S]	0.482
SSLMKYQQNVS [EGFEM1P_Y160_P157L]	0.324
QKKPRYEIRWK [PDGFRB_Y562]	1.02
TTKAKYKTPTY [PLD2_Y573]	0.336
STEVIYQPRRK [STK11_Y36]	0.473
GREFIYVDPMQ [PDGFRA_Y574_H570R_YF]	0.589
AGAKTYKMSMA [CPS1_Y309]	0.406

target: Fes (UniProt P07332); assay: as above
Sequence (P07332 whole entry, looked up): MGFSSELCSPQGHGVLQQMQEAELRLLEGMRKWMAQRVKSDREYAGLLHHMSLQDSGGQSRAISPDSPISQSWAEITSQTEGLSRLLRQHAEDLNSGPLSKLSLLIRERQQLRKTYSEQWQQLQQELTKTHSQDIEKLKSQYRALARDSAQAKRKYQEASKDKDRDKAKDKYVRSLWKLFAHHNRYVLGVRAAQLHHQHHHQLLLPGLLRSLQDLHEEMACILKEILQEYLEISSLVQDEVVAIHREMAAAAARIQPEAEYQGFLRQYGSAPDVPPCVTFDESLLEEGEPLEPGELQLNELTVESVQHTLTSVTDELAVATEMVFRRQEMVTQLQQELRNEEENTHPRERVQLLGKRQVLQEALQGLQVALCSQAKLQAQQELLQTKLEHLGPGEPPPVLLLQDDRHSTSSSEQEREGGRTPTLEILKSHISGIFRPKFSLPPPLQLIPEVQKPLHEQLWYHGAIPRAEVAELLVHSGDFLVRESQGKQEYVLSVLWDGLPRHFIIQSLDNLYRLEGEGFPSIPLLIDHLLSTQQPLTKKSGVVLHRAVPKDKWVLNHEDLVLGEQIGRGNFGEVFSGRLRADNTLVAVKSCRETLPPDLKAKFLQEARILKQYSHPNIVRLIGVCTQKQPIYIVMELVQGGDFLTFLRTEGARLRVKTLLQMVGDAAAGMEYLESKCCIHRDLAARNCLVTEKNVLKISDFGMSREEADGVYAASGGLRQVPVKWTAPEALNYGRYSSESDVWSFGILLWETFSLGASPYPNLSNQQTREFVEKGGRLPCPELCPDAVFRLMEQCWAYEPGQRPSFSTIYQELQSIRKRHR

Sequence	phosphorylation enrichment
GRQGIYTKNER [GPR143_Y231_E233K]	0.466
GTHCHYKAPIV [FZD9_Y569_T573I]	0.858
KDQGTYEDFVE [MYL6_Y86_YF]	2.32
GPQGVYSNKLV [PTPN14_Y506]	0.642
IGVDSYSVCKR [RPS6KA3_Y433_G431D]	0.577
VSNFNYFFHRE [KCNA1_Y413_YF]	1.22
QHVPDYRQNGY [PCDHGA1_Y890_V894G]	0.887
VSVVDYVEPSP [TXNRD2_Y70_A66S]	1.05
FSIDHYLGKEM [G6PD_Y202_R198S_YF]	1.2
DQIDTYELSGA [DNM1_Y354_G359A]	1.16
NNHGNYIVRLG [ETFDH_Y172]	0.723
KPVEEYANCHL [TF_Y593]	1.11
HFGCVYFGTLL [MET_Y1093_H1094Y_YF]	1.23
QFRFIYMAVQH [PTPN11_Y515_YF]	2.52
LHQSTYQCYDV [SLC7A14_Y693_R695C]	1.53
EPYKVYRIVPE [IRF8_Y110]	0.728
PLEGEYFTLQI [TP53_Y327_D324E]	3
DVFRQYASLTG [GANAB_Y379]	0.709
GSRGKYSSGFR [ATM_Y332]	0.603
SWVVPYEPPEV [TP53_Y220_V216W]	1.23
EKSREYDRLYE [PIK3R1_Y463]	1.09
LCHELYNTIRD [PBRM1_Y54_V49L]	1.03
TSESSYYKSLN [NGEF_Y288_A286S]	0.817
SSLMKYQQNVS [EGFEM1P_Y160_P157L]	0.571
QKKPRYEIRWK [PDGFRB_Y562]	1.75
TTKAKYKTPTY [PLD2_Y573]	0.501
STEVIYQPRRK [STK11_Y36]	0.523
GREFIYVDPMQ [PDGFRA_Y574_H570R_YF]	0.729
AGAKTYKMSMA [CPS1_Y309]	0.405

target: Fyn (UniProt P06241); assay: as above
Sequence (P06241 whole entry, looked up): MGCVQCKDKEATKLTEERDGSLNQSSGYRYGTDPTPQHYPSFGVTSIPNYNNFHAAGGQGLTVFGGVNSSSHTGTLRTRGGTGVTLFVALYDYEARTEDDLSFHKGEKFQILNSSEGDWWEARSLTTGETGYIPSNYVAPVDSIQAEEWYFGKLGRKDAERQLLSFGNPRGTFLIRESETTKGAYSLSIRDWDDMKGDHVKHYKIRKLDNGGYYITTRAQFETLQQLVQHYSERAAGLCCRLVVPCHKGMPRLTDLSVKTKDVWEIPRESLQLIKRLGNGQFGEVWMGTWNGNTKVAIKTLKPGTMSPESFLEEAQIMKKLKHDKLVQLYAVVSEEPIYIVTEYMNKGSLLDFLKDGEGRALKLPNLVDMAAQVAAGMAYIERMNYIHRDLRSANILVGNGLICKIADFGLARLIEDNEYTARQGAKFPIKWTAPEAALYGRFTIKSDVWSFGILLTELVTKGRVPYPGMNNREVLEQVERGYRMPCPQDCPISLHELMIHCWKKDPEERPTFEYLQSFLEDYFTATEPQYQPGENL

Sequence	phosphorylation enrichment
GRQGIYTKNER [GPR143_Y231_E233K]	0.386
GTHCHYKAPIV [FZD9_Y569_T573I]	0.428
KDQGTYEDFVE [MYL6_Y86_YF]	0.616
GPQGVYSNKLV [PTPN14_Y506]	0.633
IGVDSYSVCKR [RPS6KA3_Y433_G431D]	0.347
VSNFNYFFHRE [KCNA1_Y413_YF]	0.454
QHVPDYRQNGY [PCDHGA1_Y890_V894G]	0.523
VSVVDYVEPSP [TXNRD2_Y70_A66S]	0.494
FSIDHYLGKEM [G6PD_Y202_R198S_YF]	0.545
DQIDTYELSGA [DNM1_Y354_G359A]	0.964
NNHGNYIVRLG [ETFDH_Y172]	0.5
KPVEEYANCHL [TF_Y593]	0.472
HFGCVYFGTLL [MET_Y1093_H1094Y_YF]	0.899
QFRFIYMAVQH [PTPN11_Y515_YF]	0.939
LHQSTYQCYDV [SLC7A14_Y693_R695C]	3.95
EPYKVYRIVPE [IRF8_Y110]	0.641
PLEGEYFTLQI [TP53_Y327_D324E]	9.83
DVFRQYASLTG [GANAB_Y379]	0.379
GSRGKYSSGFR [ATM_Y332]	0.38
SWVVPYEPPEV [TP53_Y220_V216W]	0.463
EKSREYDRLYE [PIK3R1_Y463]	0.708
LCHELYNTIRD [PBRM1_Y54_V49L]	1
TSESSYYKSLN [NGEF_Y288_A286S]	0.469
SSLMKYQQNVS [EGFEM1P_Y160_P157L]	0.386
QKKPRYEIRWK [PDGFRB_Y562]	0.895
TTKAKYKTPTY [PLD2_Y573]	0.393
STEVIYQPRRK [STK11_Y36]	0.52
GREFIYVDPMQ [PDGFRA_Y574_H570R_YF]	0.906
AGAKTYKMSMA [CPS1_Y309]	0.402
